Measurements published in article PMC11633381, “Acarbose impairs gut Bacteroides growth by targeting intracellular glucosidases” (mBio, 2024).

Target: BoGH13BSus (BoSusA), periplasmic GH13 neopullulanase of the Bacteroides ovatus Sus (Bacteroides ovatus)
Assay: SEC; 0.5 mL of 10.6 mg/mL BoSusA or 8.2 mg/mL SusA on HiPrep 16/60 Sephacryl S-200 HR, 20 mM HEPES, 100 mM NaCl, pH 7.0, 0.5 mL/min; compared with BioRad gel filtration standards

How did the stoichiometry N turn out when “BoGH13BSus (BoSusA), periplasmic GH13 neopullulanase of the Bacteroides ovatus Sus (enzyme)” was run?
Its stoichiometry N is 2.
